For 3 molecules, Kd and IC50 results are on record in patent US20070274981A1 (Eli Lilly, published 2007).

Assay [1] has as its target T1, Recombinant FGFR-1(IIIb) (UniProt P11362-19 22-376).
T1 construct: Bought (R&D Systems); also called FGFR-1b; FGFR-(IIIb); not shown: Fc-tag of the recombinant receptor (detected with anti-human Fc)
T1 sequence (looked up): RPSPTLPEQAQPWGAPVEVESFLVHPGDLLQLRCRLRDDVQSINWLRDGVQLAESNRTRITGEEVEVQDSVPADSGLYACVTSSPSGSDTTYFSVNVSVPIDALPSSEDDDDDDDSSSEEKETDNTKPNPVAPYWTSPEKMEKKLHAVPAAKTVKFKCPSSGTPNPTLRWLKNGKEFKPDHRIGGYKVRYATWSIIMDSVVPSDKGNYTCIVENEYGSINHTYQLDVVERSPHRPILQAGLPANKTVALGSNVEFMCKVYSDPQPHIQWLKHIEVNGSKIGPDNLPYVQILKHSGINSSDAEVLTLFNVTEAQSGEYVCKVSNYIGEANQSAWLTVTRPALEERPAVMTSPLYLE
The assay is described as follows: kinetic analysis (BiaCore). On the technique in general: Surface plasmon resonance follows binding to a sensor surface in real time, without labels.

Assay [2] addresses T1, Recombinant FGFR-1(IIIb). In words: ELISA blocking assay: FGFR-1(IIIb) binding to immobilised FGF-1. The procedure:
(§1) Recombinant FGFs (R&D systems, Minneapolis, Minn.) were coated on Immulon® 2B microtiter plates (ThermoLab Systems, Franklin, Mass.) at concentrations of 0.5-2 μg/ml for 2 hrs. The plates were then washed with 0.2% Tween20/PBS, and blocked with 5% milk/PBS for 2 hrs before use. Phage or antibody was serially diluted with 5 μg/ml heparin (Sigma, St Louis, Mo.), 5% milk, PBS. Recombinant FGFR-1 (R&D Systems) was then added to a final concentration of 1 μg/ml. […] Plates were then washed 3 times with 0.2% Tween20/PBS. The bound receptors were detected using an anti-human Fc monoclonal antibody coupled with HRP (Pierce Biotechnology Inc., Rockford, Ill.) solution prepared according to supplier's instructions. Data were presented as % inhibition of ligand-receptor binding of the controls.
(§2) The blocking activities to fully active, native FGFR-1 receptor were determined in the cell-based blocking assay.
In general terms: In an ELISA, binding on a coated surface is turned into a signal by an enzyme label.

Assay [3] concerns the target T1, Recombinant FGFR-1(IIIb). The assay is described as follows: ELISA blocking assay: FGFR-1(IIIb) binding to immobilised FGF-2. The procedure: as §1, §2
Assay [4] deals with T1, Recombinant FGFR-1(IIIb). The assay is described as follows: BiaCore 3000 biosensor, binding kinetics.
In assay [5] the target is T2, Recombinant FGFR-4 (UniProt P22455 22-369).
T2 construct: Bought (R&D Systems); also called FGFR-4(IIIc)
T2 sequence (looked up): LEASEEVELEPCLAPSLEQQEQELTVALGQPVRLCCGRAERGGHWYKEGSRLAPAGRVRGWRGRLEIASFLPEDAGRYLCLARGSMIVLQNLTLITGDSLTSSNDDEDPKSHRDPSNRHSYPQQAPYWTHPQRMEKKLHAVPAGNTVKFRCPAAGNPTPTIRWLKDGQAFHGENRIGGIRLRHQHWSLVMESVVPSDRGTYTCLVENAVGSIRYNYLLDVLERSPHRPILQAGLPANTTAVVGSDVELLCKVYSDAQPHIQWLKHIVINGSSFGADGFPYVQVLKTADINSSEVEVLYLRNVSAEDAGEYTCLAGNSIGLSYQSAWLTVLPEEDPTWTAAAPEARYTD
In words: BiaCore 3000 biosensor, binding kinetics.

Assay [6] deals with T1, Recombinant FGFR-1(IIIb). In words: BiaCore analyses.
In assay [7] the target is T2, Recombinant FGFR-4. In words: kinetic analysis (BiaCore).

B1: FR1-H7 (antibody, V domains shown)
VH: EVQLVQSGAEVKKPGASVKVSCKVSGYTFTDYYMHWVQQAPGKGLEWMGLVDPEDGETIYAEKFQGRVTITADTSTDTAYMELSSLRSEDTAVYYCARDDYMDVWGKGTLVTVSS
VL: ETTLTQSPDTLSLSPGEGATLSCRASQSVSGSALAWYQQKPGQAPRLLIYDASSRATGVPDRFSGSGSGADFSLTISRLEPEDFAVYSCQQYGSSPLTFGPGTKVDVKR
notes: also called FR1-H7 antibody
What is called Kd is the concentration at which binding is half-saturated. For orientation: IC50 means the concentration that inhibits the measured activity by half. Consider B1, for which the Kd is around 0.05 nM in the assay with Recombinant FGFR-1(IIIb) [1], 0.06 nM with Recombinant FGFR-1(IIIb) [4] and 200 nM in the assay with Recombinant FGFR-4 [5]. For the same molecule, the half-maximal inhibitory concentration (IC50) with Recombinant FGFR-1(IIIb) [2] was around 5 nM; with Recombinant FGFR-1(IIIb) [3], 2 to 5 nM.

B2: FR1-4H (antibody, V domains shown)
VH: QVQLVEFGPGLVKPSETLSLTCTVSGGSISSYYWSWIRQPPGKGLEWIGYIYYSGSTNYNPSLKSRVAISVDTSKNQFSLKLSSVTAADTAVYYCAREYYYDSSGYYFYAFDIWGQGTTVTVSS
VL: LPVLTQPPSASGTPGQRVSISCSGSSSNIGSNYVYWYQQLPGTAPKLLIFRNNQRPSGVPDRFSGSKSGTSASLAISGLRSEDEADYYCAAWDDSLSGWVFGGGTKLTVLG
notes: Isolated by the same procedure as FR1-H7 and FR1-A1
In the case of B2, the Kd with Recombinant FGFR-1(IIIb) [6] is 1.1 nM.

B3: FR1-A1 (antibody, V domains shown)
VH: QVQLVQSGAEVKKPGSSVKVSCKASGQTFTGYYMHWVRQAPGQGLEWMGRIIPILGIANYAQKFQGRVTITADKSTSTAYMELSSLRSEDTAVYYCARGGDLGGMDVWGQG
VL: EIVLTQSPLSLPVTPGEPASISCRSSQSLRHSNGYNYLDWYLQKPGQSPQLLIYLASNRASGVPDRFSGSGSGTDFTLKISRVEAEDVGVYYCMQALQIPPTFGPGTKVDIKR
notes: also called FR1-A1 antibody
For B3, in the assay with Recombinant FGFR-4 [7], the Kd is 90 nM.
